Source: US10182986B2, “Method of delivering therapeutics and imaging agents to the brain by nanoparticles that cross the blood brain barrier” (CALIFORNIA INSTITUTE OF TECHNOLOGY, priority 2013, dated 2019)

Experiment: Tf-DAK-PEG-OPSS degradation in pH 5.5 buffer followed by MALDI-TOF
Format: physicochemical
Conditions: 37° C., crude mixture
Description: At various time points, aliquots were removed, diluted 1:10 in 10 mM NaH2PO4 pH 8.0 and frozen on CO2(s). Once the last aliquot was removed, all samples were melted and immediately measured by MALDI-TOF using a sinapinic acid matrix.

Tf-DAK-PEG-OPSS: human holo-Tf conjugated through diamino ketal (DAK) linker to PEG-orthopyridyl disulfide
Time by which nearly all the PEG has cleaved: ≤ 2 h
